# T1: PRAME peptide on HLA-A*02:01 (human)
# T1 peptide: SLLQHLIGL
# T2: peptide on HLA-A*02:01 (human)
# T2 peptide: SLLMWITQC
# Legend:
# [1] = target: HLA-A2/PRAME (425-433) on HLA-A2*01 HEK293T cells pulsed with PRAME 425-433 peptide (human); assay: cell-based or functional assay
# [2] = target: T1, PRAME peptide on HLA-A*02:01; assay: multimer staining
# peptide on HLA-A*02:01 = target: T2, peptide on HLA-A*02:01; assay: activation reporter or marker
# [3] = target: T3, soluble HLA:A2:PRAME (425-433) tetramer (human); assay: flow cytometry, soluble pMHC tetramer on CHO cells expressing the TCR;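 note: CHO cells transfected with vectors encoding full-length paired TCR alpha and beta chains, stained with PRAME/HLA tetramer and read by flow cytometry, each value reflects one listed TCR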
# T3 construct: Commercial tetramer (MBL International); construct limits, biotin tag and streptavidin/fluorophore not described; also called PRAME/HLA tetramer reagent; PRAME (425-433)/HLA-A2
Binder,"EC50 (µM) of peptide, AP1 luciferase reporter in Jurkat cells expressing the TCR [1] [µM]",binding result [2],binding result (peptide on HLA-A*02:01),"Cell Frequency ≥1000 MFI, ≥1% (% tetramer positive cells in the Ag+ gate) [3] [%]"
"PN42712 (TCR, V domains shown) V domain 1: GIQVEQSPPDLILQEGANSTLRCNFSDSVNNLQWFHQNPWGQLINLFYIPSGTKQNGRLSATTVATERYSLLYISSSQTTDSGVYFCAVGSSNDYKLSFGAGTTVTVRA V domain 2: EAQVTQNPRYLITVTGKKLTVTCSQNMNHEYMSWYRQDPGLGLRQIYYSMNVEVTDKGDVPEGYKVSRKEKRNFPLILESPSPNQTSLYFCASSPGTGGFSPLHFGNGTRLTVT",0.0133,recognises,no recognition,80.7
"PN42711 (TCR, V domains shown) V domain 1: GIQVEQSPPDLILQEGVNSTLRCNFSDSVNNLQWFHQNPWGQLINLFYIPSGTKQNGRLSATTVATERYSLLYISSSRTTDSGVYFCAVGSSNGYKLSFGAGTTVTVRA V domain 2: EAQVTQNPRYLITVTGKKLTVTCSQNMNHEYMSWYRQDPGLGLRQIYYSMNVEVTDKGDVPEGYKVSRKEKRNFPLILESPSPNQTSLYFCASSPGTGGFSPLHFGNGTRLTVT",0.0569,recognises,no recognition,4.26
"PN42558 (TCR, V domains shown) V domain 1: GIQVEQSPPDLILQEGANSTLRCNFSDSVNNLQWFHQNPWGQLINLFYIPSGTKQNGRLSATTVATERYSLLYISSSQTTDSGVYFCVLGGGSQGNLIFGKGTKLSVKP V domain 2: DAGVTQSPTHLIKTRGQQVTLRCSPKSGHDTVSWYQQALGQGPQFIFQYYEEEERQRGNFPDRFSGHQFPNYSSELNVNALLLGDSALYLCASSFTDYGYTFGSGTRLTVV",0.261,recognises,no recognition,85.7
"PN42870 (TCR, V domains shown) V domain 1: TQLLEQSPQFLSIQEGENLTVYCNSSSVFSSLQWYRQEPGEGPVLLVTVVTGGEVKKLKRLTFQFGDARKDSSLHITAAQPGDTGLYLCAENSGGGADGLTFGKGTHLIIQP V domain 2: DAGVTQSPTHLIKTRGQQVTLRCSPKSGHDTVSWYQQALGQGPQFIFQYYEEEERQRGNFPDRFSGHQFPNYSSELNVNALLLGDSALYLCASSFTDYGYTFGSGTRLTVV",0.13,recognises,no recognition,7.27
"PN42815 (TCR, V domains shown, the summary and claims print the pair as 893/805) V domain 1: GESVGLHLPTLSVQEGDNSIINCAYSNSASDYFIWYKQESGKGPQFIIDIRSNMDKRQGQRVTVLLNKTVKHLSLQIAATQPGDSAVYFCAENNYGQNFVFGPGTRLSVLP V domain 2: EAQVTQNPRYLITVTGKKLTVTCSQNMNHEYMSWYRQDPGLGLRQIYYSMNVEVTDKGDVPEGYKVSRKEKRNFPLILESPSPNQTSLYFCASSLWDSSPLHFGNGTRLTVT",0.126,recognises,no recognition,4.35
"PN42826 (TCR, V domains shown) V domain 1: DQQVKQNSPSLSVQEGRISILNCDYTNSMFDYFLWYKKYPAEGPTFLISISSIKDKNEDGRFTVFLNKSAKHLSLHIVPSQPGDSAVYFCAASAGSARQLTFGSGTQLTVLP V domain 2: EAQVTQNPRYLITVTGKKLTVTCSQNMNHEYMSWYRQDPGLGLRQIYYSMNVEVTDKGDVPEGYKVSRKEKRNFPLILESPSPNQTSLYFCASSLYTHTEAFFGQGTRLTVV",4.92,recognises,no recognition,9.26
"PN42441 (TCR, V domains shown) V domain 1: DAKTTQPNSMESNEEEPVHLPCNHSTISGTDYIHWYRQLPSQGPEYVIHGLTSNVNNRMASLAIAEDRKSSTLILHRATLRDAAVYYCIRRPGNQFYFGTGTSLTVIP V domain 2: EAQVTQNPRYLITVTGKKLTVTCSQNMNHEYMSWYRQDPGLGLRQIYYSMNVEVTDKGDVPEGYKVSRKEKRNFPLILESPSPNQTSLYFCASSLWTGSEAFFGQGTRLTVV",0.821,recognises,no recognition,15.5

# More lines, now with the values ahead:
"EC50 (µM) of peptide, AP1 luciferase reporter in Jurkat cells expressing the TCR [1] [µM]",binding result [2],binding result (peptide on HLA-A*02:01),"Cell Frequency ≥1000 MFI, ≥1% (% tetramer positive cells in the Ag+ gate) [3] [%]",Binder
0.0479,recognises,no recognition,6.86,"PN42833 (TCR, V domains shown) V domain 1: DAKTTQPPSMDCAEGRAANLPCNHSTISGNEYVYWYRQIHSQGPQYIIHGLKNNETNEMASLIITEDRKSSTLILPHATLRDTAVYYCIVRDTTSGTYKYIFGTGTRLKVLA V domain 2: EAQVTQNPRYLITVTGKKLTVTCSQNMNHEYMSWYRQDPGLGLRQIYYSMNVEVTDKGDVPEGYKVSRKEKRNFPLILESPSPNQTSLYFCASSLSSTGFSPLHFGNGTRLTVT"
0.911,recognises,no recognition,10.5,"PN42845 (TCR, V domains shown) V domain 1: TQLLEQSPQFLSIQEGENLTVYCNSSSVFSSLQWYRQEPGEGPVLLVTVVTGGEVKKLKRLTFQFGDARKDSSLHITAAQPGDTGLYLCAGIRSNDYKLSFGAGTTVTVRA V domain 2: EAQVTQNPRYLITVTGKKLTVTCSQNMNHEYMSWYRQDPGLGLRQIYYSMNVEVTDKGDVPEGYKVSRKEKRNFPLILESPSPNQTSLYFCASSSWTAHTEAFFGQGTRLTVV"
0.876,recognises,no recognition,91.6,"PN42774 (TCR, V domains shown) V domain 1: QKEVEQNSGPLSVPEGAIASLNCTYSDRGSQSFFWYRQYSGKSPELIMSIYSNGDKEDGRFTAQLNKASQYVSLLIRDSQPSDSATYLCAVNRGTDKLIFGTGTRLQVFP V domain 2: DAGVTQSPTHLIKTRGQQVTLRCSPKSGHDTVSWYQQALGQGPQFIFQYYEEEERQRGNFPDRFSGHQFPNYSSELNVNALLLGDSALYLCASSWTDYGYTFGSGTRLTVV"
0.245,recognises,no recognition,49.4,"PN42795 (TCR, V domains shown) V domain 1: RKEVEQDPGPFNVPEGATVAFNCTYSNSASQSFFWYRQDCRKEPKLLMSVYSSGNEDGRFTAQLNRASQYISLLIRDSKLSDSATYLCVVNGGSQGNLIFGKGTKLSVKP V domain 2: DAGVTQSPTHLIKTRGQQVTLRCSPKSGHDTVSWYQQALGQGPQFIFQYYEEEERQRGNFPDRFSGHQFPNYSSELNVNALLLGDSALYLCASSVGDYGYTFGSGTRLTVV"
0.0336,recognises,no recognition,62.2,"PN42450 (TCR, V domains shown) V domain 1: AQRVTQPEKLLSVFKGAPVELKCNYSYSGSPELFWYVQYSRQRLQLLLRHISRESIKGFTADLNKGETSFHLKKPFAQEEDSAMYYCALGNTDKLIFGTGTRLQVFP V domain 2: DVKVTQSSRYLVKRTGEKVFLECVQDMDHENMFWYRQDPGLGLRLIYFSYDVKMKEKGDIPEGYSVSREKKERFSLILESASTNQTSMYLCASSSPRTGWYGYTFGSGTRLTVV"
0.046,recognises,no recognition,4.39,"PN42746 (TCR, V domains shown) V domain 1: GESVGLHLPTLSVQEGDNSIINCAYSNSASDYFIWYKQESGKGPQFIIDIRSNMDKRQGQRVTVLLNKTVKHLSLQIAATQPGDSAVYFCAENRQDNYGQNFVFGPGTRLSVLP V domain 2: EAQVTQNPRYLITVTGKKLTVTCSQNMNHEYMSWYRQDPGLGLRQIYYSMNVEVTDKGDVPEGYKVSRKEKRNFPLILESPSPNQTSLYFCASSLWVNTEAFFGQGTRLTVV"
115,recognises,no recognition,4.95,"PN42762 (TCR, V domains shown) V domain 1: DAKTTQPNSMESNEEEPVHLPCNHSTISGTDYIHWYRQLPSQGPEYVIHGLTSNVNNRMASLAIAEDRKSSTLILHRATLRDAAVYYCILNTGTASKLTFGTGTRLQVTL V domain 2: EAQVTQNPRYLITVTGKKLTVTCSQNMNHEYMSWYRQDPGLGLRQIYYSMNVEVTDKGDVPEGYKVSRKEKRNFPLILESPSPNQTSLYFCASSLSSNTEAFFGQGTRLTVV"
0.94,recognises,no recognition,4.09,"PN42895 (TCR, V domains shown) V domain 1: DQQVKQSSPSLSVQEGRISILNCDYTNSMFDYFLWYKKYPAEGPTFLISISSIKDKNEDGRFTVFLNKSAKHLSLHIVPSQPGDSAVYFCAASAGSARQLTFGSGTQLTVLP V domain 2: EAQVTQNPRYLITVTGKKLTVTCSQNMNHEYMSWYRQDPGLGLRQIYYSMNVEVTDKGDVPEGYKVSRKEKRNFPLILESPSPNQTSLYFCASSLWSNTEAFFGQGTRLTVV"
